# Patent US8143228B2, “Agents capable of downregulating an MSF-A dependent HIF-1α and use thereof in cancer treatment” (Medical Research Fund of Tel Aviv Sourasky Medical Center, priority 2004, dated 2012)
# Tests used:
# [1] = system: HIF-1 transcriptional activity; test: HRE-dependent luciferase reporter gene assay in PC-3 cells; format: cell-based; conditions: pooled PC-3-MSF-A vs PC-3-Neo cells
# Procedure: Reporter gene assay and luminescence measurements—HRE-dependent luciferase activity was performed using the pBI-GL construct (pBI-GL V6L) containing six tandem copies of the VEGF hypoxia response element as previously described (Mabjeesh et al., 2002; Post and Van Meir, 2001). Cells were grown in 6-well plates and then transiently transfected in triplicate with a total of 1 μg DNA including 0.1 μg of the reporter plasmid, pBI-GL V6L. Duplicate sets of transfected cell-culture plates were then separated and incubated for 16 hours under either normoxic or hypoxic conditions. Luciferase enzymatic activity was measured using the commercial kit TROPIX (Bedford, Mass.) in the Galaxy luminometer (BMG Labtechnologies LUMIstar) following the manufacturer's instructions. Arbitrary Luciferase activity units were normalized to the amount of protein in each assay point.
# To investigate the effect of MSF-A binding on HIF-1α function, the transcriptional activity of the HIF-1 complex was determined using a reporter gene assay as previously described (Mabjeesh N J et al. 2ME2 inhibits tumor growth and angiogenesis by disrupting microtubules and dysregulating HIF. Cancer Cell 2003; 3: 363-375). […]
# [2] = system: PC-3 cells; test: Soft agar foci assay; format: cell-based; conditions: PC-3-MSF-A vs PC-3-Neo cells, 4 weeks, normoxia
# Procedure: FIGS. 14a-g are microscopic photographs (FIGS. 14a-f) and a graph depicting the effect of MSF-A over-expression on colony formation and growth (FIG. 14g). PC-3-Neo and PC-3-MSF-A cells were grown for 4 weeks in soft agar under normoxic conditions. Colonies were observed and counted. FIGS. 14a, c, and e—representative colonies from each plate seeded with PC-3-Neo cells; FIGS. 14b, d, and f—representative colonies from each plate seeded with PC-3-MSF-A cells; FIG. 14g—quantitative analysis of colony number from each cell type. Columns=means; bars=SD; n=3.
# Soft Agar Foci assay—The assay tests the anchorage-independent growth of the cell in soft agar. Suspensions of PC-3-Neo or PC-3-MSF-A cells in 0.22% soft agar were poured on 35 mm-diameter plate (5000 cells/plate) pre-cast with 0.5% soft agar and were cultured for 4 weeks. Colonies (≧20 cells) were counted.
# [3] = system: PC-3 xenograft tumors; test: Prostate cancer subcutaneous xenograft model; format: in vivo, CD1/nude mice; conditions: PC-3-MSF-A vs PC-3-Neo tumors
# Procedure: FIG. 28 is a graph depicting the effect of MSF-A over-expression on tumor volume. A prostate cancer xenograft model was established using PC-3-Neo and PC-3-MSF-A cells (3×10^6) which were implanted subcutaneously into the right hind of nude mice. PBS was used as a negative control. Animals were monitored for tumor volume measurements. Tumor volume measurements were calculated using the formula width^2×length×0.52. Mean±SEM (n=5) of representative experiments is shown.
# FIG. 29 is a graph depicting the effect of MSF-A over-expression on tumor weight. A prostate cancer xenograft model was established as described in FIG. 28. Mice were sacrificed after 6 weeks and tumors were processed for tumor weight measurements. Tumors were weighed immediately after dissection. Columns, means; bars, SEM; n=5; *, p<0.05.
# FIGS. 30a-h are photomicrographs (FIGS. 30a-f) and graphs (FIGS. 30g-h) depicting MSF-A over-expression in tumors and angiogenesis in a prostate cancer xenograft model. […] FIG. 30g—Ki67 staining (%) was quantified by dividing the number of positive nuclei by the number of total nuclei in 40× magnification field multiplied by 100, of 5 paraffin-embedded tumor sections from each animal per group. […] FIG. 30h—Microvessel density (MVD) was determined by counting the capillaries positive for CD34 staining in 4× magnification field per total section area excluding necrotic areas in 5 paraffin-embedded tumor sections from each animal per group. […]
# Immunohistochemistry with anti-CD34 and anti-Ki67—For immunohistochemical staining paraffin-embedded tissue was sectioned at 3 μm and mounted on Superfrost/plus slides (Menzel-Glaser, Braunschweig, Germany). […] For quantitative analysis of Ki67 and CD34 staining, positive staining cells and microvessels were counted and their density expressed as the number of positive cells per total number of cells or capillaries per total section area excluding necrotic areas, respectively. […]
molecule,measurement,setting,value
"MSF-A: myeloid/lymphoid leukemia septin-like fusion protein A (SEQ ID NO:3), over-expressed from the p3xFlag-MSF-A vector (protein, listed as Homo sapiens, 3xFlag tag) MKKSYSGGTRTSSGRLRRLGDSSGPALKRSFEVEEVETPNSTPPRRVQTPLLRATVASSTQKFQDLGVKNSEPSARHVDSLSQRSPKASLRRVELSGPKAAEPVSRRTELSIDISSKQVENAGAIGPSRFGLKRAEVLGHKTPEPAPRRTEITIVKPQESAHRRMEPPASKVPEVPTAPATDAAPKRVEIQMPKPAEAPTAPSPAQTLENSEPAPVSQLQSRLEPKPQPPVAEATPRSQEATEAAPSCVGDMADTPRDAGLKQAPASRNEKAPVDFGYVGIDSILEQMRRKAMKQGFEFNIMVVGQSGLGKSTLINTLFKSKISRKSVQPTSEERIPKTIEIKSITHDIEEKGVRMKLTVIDTPGFGDHINNENCWQPIMKFINDQYEKYLQEEVNINRKKRIPDTRVHCCLYFIPATGHSLRPLDIEFMKRLSKVVNIVPVIAKADTLTLEERVHFKQRITADLLSNGIDVYPQKEFDEDSEDRLVNEKFREMIPFAVVGSDHEYQVNGKRILGRKTKWGTIEVENTTHCEFAYLRDLLIRTHMQNIKDITSSIHFEAYRVKRLNEGSSAMANGVEEKEPEAPEM","HIF-1 transcriptional activity (luciferase assay), stable transfectants",[1],significant increase
same,colony formation in soft agar,[2],significantly more colonies
same,intratumoral cell proliferation (Ki67) and vascular density (CD34),[3],significantly increased
same,mean tumor weight,[3]; after 6 weeks,significantly heavier
same,increase of mean tumor volume,"[3]; s.c., nude mice, not statistically significant",about 2 fold
